The text below walks through data of patent US20190144550A1.

Experiment [1] concerns the target wild-type EGFR expressed on cells (human), P00533. The experiment is described as follows: flow cytometry, A431 cells. The note with it: remark: other sources report otherwise.
Experiment [2] shares this target. The experiment can be described thus: flow cytometry, F98-EGFRwt cells. The note with it: remark: other sources report otherwise. (In general: In flow cytometry, cells or beads pass a laser one at a time.)

B1: 30D8 (antibody, V domains shown)
VH: EVQLVESGGGLVKPGGSLRLSCEASGFTFSDAWMSWVRQAPGKGLEWVGRIKSKTDGGTTDYVVPLNGRFIISRDDSRNTLYLQLNNLKTEDTAVYYCTTVPGSYGYWGQGTLVTVSS
VL: DIVMTQSPLSLPVTPGEPASISCRSSQSLLHNKRNNYLDWFLQKPGQSPQLLIYLASNRASGVPDRFSGGGSGTDFTLKISRVEAEDVGVYYCMQAQQTPITFGQGTRLEIK
For B1, the % positive worked out at 1.3% in experiment [1] and 1.7% in experiment [2]. Besides, the MFI in experiment [1] was found to be 269; in experiment [2], 280.

B2: 32G8 (antibody, V domains shown)
VH: EVNLVESGGGLVKPGGSLRLSCEASGFTFSYAWMSWVRQAPGKGLEWVGRIKSITDGGVIDYAAPVRNRCTISRDDSRNTLYLEMHSLKTEDTAVYYCTTIPGNDDFDMWGQGRMVTVSS
VL: DIVLTQSPLSLSVTPGEPASISCRSSQSLLYSNGKNYLDWFLHKPGQSPQLLIYLGSNRASGVPDRFSGSGSGIDFILKISRVEAEDVGVYYCMQAQQTPITFGQGTRLEIK
For B2, the MFI in experiment [1] is 271. In experiment [2], the % positive was 1.6% and the MFI was 301.

B3: 34E7 (antibody, V domains shown)
VH: EVNLVESGGGLVKPGGSLRLSCEASGFTFSYAWMSWVRQAPGKGLEWVGRIKSINDGGATDYASPVRNRFTISRDDSRNMLYLEMHSLKTEDTAVYYCTTIPGNDAFDMWGQGTLVTVSS
VL: DIVLTQSPLSLSVTPGEPASISCRSTQSLLYSNGKNYLDWFLHKPGQSPQLLIFLGSIRASGVPDRFSGSGSGIDFILKISRVEAEDVGVYYCMQAQQTPITFGQGTRLEIK
As to B3, in experiment [1], the % positive is 1.1% and the MFI worked out at 294. Also, in experiment [2], the MFI amounted to 371.
